Measurements as given in US20260274955A1 (JANUX THERAPEUTICS, published 2026).

Assays:
[1] = biological target: T1, Anti-CD28 Fab (SEQ ID NOs: 202, 203); assay: phage ELISA, Fab on plate;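 note: crude clonal phage supernatants added to wells pretreated with blocking buffer with or without CD28 antigen, then bound phage read out via HRP-linked anti-M13 antibody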
T1 construct: biotinylated and captured on neutravidin coated plates in the phage ELISA
Experimental: (§1) After panning, phage infected bacteria were plated out and colonies picked into 96 well blocks. Clonal phage was then amplified and separated from bacterial cells via centrifugation.
(§2) Clonal phage were harvested as crude supernatants and screened via standard ELISAs. […] Prior to the addition of clonal phage, wells were incubated with blocking buffer and CD28 antigen or blocking buffer alone. Without washing or aspirating, clonal phage supernatants were then added to the wells and incubated for a short time. Wells were then washed followed by detection of bound phage using a horse radish conjugated anti-M13 antibody. Clonal phage of interest were then sent for sequence analysis.

[2] = biological target: T1, Anti-CD28 Fab (SEQ ID NOs: 202, 203); assay: phage ELISA, Fab on plate, CD28 antigen as competitor
Experimental: as §1, §2

T1 sequence (VH, as listed by the source, chain 1 of 2): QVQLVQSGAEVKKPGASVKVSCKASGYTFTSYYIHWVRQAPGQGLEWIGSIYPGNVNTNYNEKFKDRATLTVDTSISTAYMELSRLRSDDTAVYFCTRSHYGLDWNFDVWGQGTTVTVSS
T1 sequence (VL, as listed by the source, chain 2 of 2): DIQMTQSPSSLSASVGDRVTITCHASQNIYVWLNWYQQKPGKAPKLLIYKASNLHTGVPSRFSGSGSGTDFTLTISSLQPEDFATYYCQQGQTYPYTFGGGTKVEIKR

| Binder | Anti-CD28 Fab (SEQ ID NOs: 202, 203) signal [1] | Anti-CD28 Fab signal in the presence of CD28 [2] |
| --- | --- | --- |
| YCEGHSSQWMWKCL [Phage-674] | 1.27 | 0.09 |
| YCQGHSVEHMAKCL [Phage-666] | 1.3 | 0.06 |
| YCEGHLPRYMLKCL [Phage-671] | 1.28 | 0.3 |
| YCEGHLQEHMAKCL [Phage-684] | 1.25 | 0.05 |
| YCEGHLVQYMQKCL [Phage-669] | 1.28 | 0.06 |
| YCEGHDVQYMQKCL [Phage-749] | 1.06 | 0.08 |
| YCEGHHRIYMQKCL [Phage-681] | 1.26 | 0.07 |
| YCDGHSEQYMAKCL [Phage-687] | 1.24 | 0.06 |
| YCEGHMSIYMQKCL [Phage-683] | 1.25 | 0.07 |
| YCDGHAEEYRMKCL [Phage-678] | 1.27 | 0.08 |
| YCDGHLPLYMQKCF [Phage-652] | 1.33 | 0.1 |
| YCDGHSPAYLQKCL [Phage-673] | 1.28 | 0.06 |
| YCDGHAPQYMRKCL [Phage-651] | 1.33 | 0.08 |
| YCSEHQIIFIQKCL [Phage-654] | 1.32 | 0.08 |
| YCDGHLEVYMDKCL [Phage-672] | 1.28 | 0.07 |
| YCEGHLPEYMIKCL [Phage-658] | 1.32 | 0.06 |
| YCEGHLAEYMNKCL [Phage-690] | 1.24 | 0.07 |
| YCEGHSLEYMMKCV [Phage-664] | 1.3 | 0.07 |
| YCAGHMPIYMTKCL [Phage-667] | 1.3 | 0.08 |

| Binder | Anti-CD28 Fab (SEQ ID NOs: 202, 203) signal [1] | Anti-CD28 Fab signal in the presence of CD28 [2] |
| --- | --- | --- |
| YCEGHLPMYMQKCL [Phage-660] | 1.31 | 0.08 |
| YCEGHLPMYMTKCL [Phage-686] | 1.25 | 0.06 |
| YCAGHLPMYMQKCL [Phage-653] | 1.33 | 0.08 |
| YCEGHFPLYMNKCL [Phage-675] | 1.27 | 0.08 |
| YCAGLFEEYMSKCL [Phage-685] | 1.25 | 0.06 |
| YCDGHIPEYMTKCL [Phage-661] | 1.31 | 0.06 |
| YCEGHTQEYMQKCL [Phage-688] | 1.24 | 0.07 |
| YCEGHLPAYMWKCL [Phage-659] | 1.31 | 0.08 |
| YCDGHSSVYMLKCL [Phage-680] | 1.26 | 0.06 |
| YCEGHSTEYMAKCL [Phage-676] | 1.27 | 0.06 |
| YCEGHSEEYMAKCL [Phage-682] | 1.26 | 0.07 |
| YCEGHQPAYMEKCL [Phage-677] | 1.27 | 0.06 |
| YCEGHLEIYLAKCL [Phage-655] | 1.32 | 0.07 |
| YCDGHAPQYMAKCI [Phage-665] | 1.3 | 0.06 |
| YCDGHLPVYMTKCL [Phage-679] | 1.27 | 0.07 |
| YCAGHALEYMGKCL [Phage-657] | 1.32 | 0.06 |
| YCMGHLPIYMEKCL [Phage-670] | 1.28 | 0.05 |
| YCEGHSAVYMSKCL [Phage-663] | 1.31 | 0.06 |
| YCDGHRAEYMLKCL [Phage-668] | 1.29 | 0.08 |
